The target of assay [1] is soluble type I collagen (acid-soluble type I atelocollagen from bovine hides) (bovine) (UniProt P02453). Put plainly: ELISA. (In general: An ELISA detects its analyte on a solid surface through an enzyme-linked reagent.)
Assay [2] concerns the target type I gelatin (heat-denatured acid-soluble type I atelocollagen from bovine hides) (bovine) (UniProt P02453). Put plainly: ELISA.
The target of assay [3] is V-domain of Scl2.3 (Streptococcus pyogenes). Put plainly: SDS-PAGE.

pKd: −log10 of the molar value. Some results are limits rather than exact numbers.

soluble type I collagen (acid-soluble type I atelocollagen from bovine hides) (bovine), sequence (P02453 162-1217, chain 1 of 2): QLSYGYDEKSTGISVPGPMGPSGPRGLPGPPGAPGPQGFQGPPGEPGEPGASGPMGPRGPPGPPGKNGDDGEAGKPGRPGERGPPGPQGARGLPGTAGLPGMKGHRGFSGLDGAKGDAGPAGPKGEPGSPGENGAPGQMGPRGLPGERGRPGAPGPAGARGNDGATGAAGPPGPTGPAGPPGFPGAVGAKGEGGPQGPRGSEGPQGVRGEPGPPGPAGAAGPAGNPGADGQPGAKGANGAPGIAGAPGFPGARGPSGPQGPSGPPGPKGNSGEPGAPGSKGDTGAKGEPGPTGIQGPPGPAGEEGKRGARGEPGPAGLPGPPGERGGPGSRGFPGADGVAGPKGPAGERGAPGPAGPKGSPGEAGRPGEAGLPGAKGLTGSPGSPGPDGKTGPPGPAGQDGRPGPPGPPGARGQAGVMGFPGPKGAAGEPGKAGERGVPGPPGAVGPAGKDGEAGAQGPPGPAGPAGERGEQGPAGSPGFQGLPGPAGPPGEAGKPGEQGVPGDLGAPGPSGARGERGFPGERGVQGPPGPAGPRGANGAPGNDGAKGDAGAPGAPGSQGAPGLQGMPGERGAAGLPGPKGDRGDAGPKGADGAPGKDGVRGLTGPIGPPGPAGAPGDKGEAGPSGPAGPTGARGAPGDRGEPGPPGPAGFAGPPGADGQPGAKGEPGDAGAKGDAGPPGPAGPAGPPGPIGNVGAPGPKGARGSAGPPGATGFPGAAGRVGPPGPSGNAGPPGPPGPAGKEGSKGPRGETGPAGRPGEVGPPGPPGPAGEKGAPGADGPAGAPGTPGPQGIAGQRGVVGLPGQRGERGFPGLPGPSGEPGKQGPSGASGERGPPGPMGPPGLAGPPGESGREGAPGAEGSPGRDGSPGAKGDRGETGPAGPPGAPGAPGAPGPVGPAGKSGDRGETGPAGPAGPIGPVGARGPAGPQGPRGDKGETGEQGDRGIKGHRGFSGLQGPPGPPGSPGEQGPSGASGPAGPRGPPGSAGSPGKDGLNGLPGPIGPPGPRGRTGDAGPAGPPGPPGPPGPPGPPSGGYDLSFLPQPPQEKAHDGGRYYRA
soluble type I collagen (acid-soluble type I atelocollagen from bovine hides) (bovine), sequence (P02465 80-1117, chain 2 of 2, further chain): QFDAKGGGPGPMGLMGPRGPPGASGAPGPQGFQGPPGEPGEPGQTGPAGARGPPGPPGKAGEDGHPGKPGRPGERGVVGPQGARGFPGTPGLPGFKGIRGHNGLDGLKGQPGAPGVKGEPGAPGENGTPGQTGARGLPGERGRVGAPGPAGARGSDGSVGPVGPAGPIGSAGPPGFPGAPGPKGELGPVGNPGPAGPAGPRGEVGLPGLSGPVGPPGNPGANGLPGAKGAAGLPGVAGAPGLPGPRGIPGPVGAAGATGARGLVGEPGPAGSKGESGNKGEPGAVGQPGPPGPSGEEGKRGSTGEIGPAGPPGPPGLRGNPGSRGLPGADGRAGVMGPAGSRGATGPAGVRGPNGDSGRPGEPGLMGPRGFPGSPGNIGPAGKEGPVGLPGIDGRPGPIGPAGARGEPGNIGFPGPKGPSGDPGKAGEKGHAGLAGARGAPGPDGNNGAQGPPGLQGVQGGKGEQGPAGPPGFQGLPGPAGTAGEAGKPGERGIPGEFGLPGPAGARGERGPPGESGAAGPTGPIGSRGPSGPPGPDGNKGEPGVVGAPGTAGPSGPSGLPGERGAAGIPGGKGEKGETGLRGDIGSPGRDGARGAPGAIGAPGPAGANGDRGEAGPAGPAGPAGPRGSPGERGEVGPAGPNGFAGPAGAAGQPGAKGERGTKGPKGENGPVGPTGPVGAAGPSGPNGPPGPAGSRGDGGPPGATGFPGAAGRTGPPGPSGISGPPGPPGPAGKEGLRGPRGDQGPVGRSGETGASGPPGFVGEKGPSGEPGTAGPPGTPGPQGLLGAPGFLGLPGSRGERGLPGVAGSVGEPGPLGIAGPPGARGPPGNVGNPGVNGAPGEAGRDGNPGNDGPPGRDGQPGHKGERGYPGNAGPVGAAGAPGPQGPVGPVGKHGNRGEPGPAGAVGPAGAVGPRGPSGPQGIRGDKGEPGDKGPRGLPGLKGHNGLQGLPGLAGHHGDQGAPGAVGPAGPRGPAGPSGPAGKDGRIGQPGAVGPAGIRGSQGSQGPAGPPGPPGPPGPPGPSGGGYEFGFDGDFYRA
type I gelatin (heat-denatured acid-soluble type I atelocollagen from bovine hides) (bovine), sequence (P02453 162-1217, chain 1 of 2): as the sequence (P02453 162-1217, chain 1 of 2) above
type I gelatin (heat-denatured acid-soluble type I atelocollagen from bovine hides) (bovine), sequence (P02465 80-1117, chain 2 of 2, further chain): as the sequence (P02465 80-1117, chain 2 of 2, further chain) above

As usually defined, the pKd is the Kd on a negative log10 scale, so that one unit is a factor of ten. Higher therefore signals a small Kd. As for “ColG-CU E524A (Y119-G790) (domain or fragment)”, the pKd is 6.43 in assay [1] and 7.10 in assay [2].

On to “ColG-PD E524A (D398-G790) (domain or fragment)”, for which the figures for the pKd in assay [1] and in assay [2] were 3.30 and 3.61, respectively.

By stoichiometry N is commonly meant the number of molecules, sites or subunits per partner or assembly. Take V-domain of Scl2.3 (domain or fragment): in assay [3], the stoichiometry N turned out to be 3.

With ColQ1-CU G472V (domain or fragment), the pKd in assay [1] and in assay [2] was 5.80 each time.

On to “ColQ1-CU G472V R169A (domain or fragment)”, for which, in assay [1], the fold increase in affinity against ColQ1-CU G472V (WT) is 9 fold.

With “ColQ1-CU G472V N226A (domain or fragment)”, the fold reduction in binding affinity against ColQ1-CU G472V (WT) in assay [1] was > 90 fold. This substance also registered a fold drop in binding affinity against ColQ1-CU G472V (WT) in assay [2] of 90 fold.

“ColQ1-CU G472V Y173A (domain or fragment)” gave a fold drop in binding affinity against ColQ1-CU G472V (WT) in assay [2] of 15 fold.

“ColQ1-CU G472V Y270A (domain or fragment)” yielded a fold increase in affinity against ColQ1-CU G472V (WT) in assay [1] of 8 fold.

With “ColQ1-CU G472V F176A (domain or fragment)”, the fold increase in affinity against ColQ1-CU G472V (WT) in assay [1] amounted to 20 fold.

The values are drawn from doi:10.1101/2023.07.18.549520.
